Data set [1] has as its system MS2 coat protein. In words: apparent KD of MS2 coat protein; designed switch direction (-1 OFF switch, 1 ON switch): 1; higher = weaker reporter binding. The gist of the method:
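The apparent KD reported per design is the median over clusters of curve fits to normalised cluster fluorescence. The RNA switches were transcribed on Illumina chips by stalled E. coli RNA polymerase. SNAP-549-labelled MS2 coat protein was titrated from 0.7 or 1.5 nM, doubling up to 3 µM, in Tris-HCl pH 7.5 buffer containing KCl, MgCl2, BSA, DTT, tRNA and Tween-20, with no input, 200 uM small-molecule ligand, or an oligonucleotide input.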

Data set [2] deals with MS2 coat protein. In words: apparent KD of MS2 coat protein; higher = weaker reporter binding. The following applies: Eterna round: R107. A digest of the protocol: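 Illumina sequencing clusters were used for on-chip transcription of designed RNA switches. Titration with SNAP-549-labelled MS2 coat protein followed, in twofold steps from 0.7 or 1.5 nM to 3 µM in 100 mM Tris-HCl pH 7.5, 80 mM KCl, 4 mM MgCl2, without or with constant ligand. Apparent KD is each design's median of fits to normalised cluster binding curves.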

Setting [3] is: input ligand: microRNA oligo, concentration not stated.
Where [4] appears, read: Eterna round: R95, input ligand: FMN 200 uM.
[5] abbreviates: Eterna round: R95, input ligand: microRNA oligo, concentration not stated.
[6] abbreviates: Eterna round: R95, input ligand: none.

As for “AAAACAUGACGAGGAUAUGGUACAUGAGGAUCACCCAUGUAUGUACCACGACGCGUACGUCGAAUCCAGAAGGCGUCGUGAAAA [Mat - Same State NG 2 - JL mod - D19] (Eterna round: R96, puzzle: Same State NG 2)”, the entries for the “apparent KD of MS2 coat protein” value with MS2 coat protein [1] (input ligand: FMN 200 uM), with MS2 coat protein [1] (setting [3]) and in the data set with MS2 coat protein [1] (input ligand: none) were 20.3 nM, 68.5 nM and 74.1 nM, respectively.
As to “AAAAUACAUGAGGAUCACCCAUGUAGAAACUACACAGGAUAUCGGACGGCUGUAGCCGAACGAGAAGGGUGAACCC [Uszadi] (puzzle: Same State 1)”, the “apparent KD of MS2 coat protein” value was determined as 205 nM in the data set with MS2 coat protein [1] (setting [4]), 228 nM with MS2 coat protein [1] (setting [5]) and 313 nM with MS2 coat protein [1] (setting [6]).
Take “AAAAUGGCAUGUUACAUGAGGAUCACCCAUGUGCCGUCAACUGAGGAUAUGGUGCUGUAGAAGAAUCAGAAGGUAGUCAUUUAA [AK SSNG3-V2-27] (Eterna round: R96, puzzle: Same State NG 3)”: the results for the “apparent KD of MS2 coat protein” value in the data set with MS2 coat protein [1] (input ligand: FMN 200 uM), in the data set on MS2 coat protein [1] (setting [3]) and in the data set with MS2 coat protein [1] (input ligand: none) were 22.6 nM, 15.8 nM and 27 nM, respectively.
“AAACUACGUGCACAGGAUAUACGUUCCUAUACAUGAGGAUCACCCAUGUACCAACCGAAAAGGAAGUAGAAGGGUGUCCGUAAAC [Esardixequ] (puzzle: Same State 2)”: the “apparent KD of MS2 coat protein” value in the data set on MS2 coat protein [1] (setting [4]) amounted to 19.2 nM; in the data set with MS2 coat protein [1] (setting [5]) it was 51.6 nM; in the data set on MS2 coat protein [1] (setting [6]) it was 57.2 nM.
For the sequence “AAACUACGUGCACAGGAUAUACGUUCCUAUACAUGAGGAUCACCCAUGUACCAACUGAAAAGGAAGUAGAAGGGUGUCCGUAAAC [Erbibearza] (puzzle: Same State 2)”, the “apparent KD of MS2 coat protein” value in the data set on MS2 coat protein [1] (setting [4]) came to 17.7 nM; in the data set with MS2 coat protein [1] (setting [5]) it was 80.3 nM; in the data set with MS2 coat protein [1] (setting [6]), 53.7 nM.
“AAAGAAGAAAGACAGGAUAUGGAUGGGUAAACAUGAGGAUCACCCAUGUAUAAGAAAGAAAGAAACCAGAAGGGUCAAAAGAAAA [Darius III] (Eterna round: R96, puzzle: Same State 2)”: the “apparent KD of MS2 coat protein” value with MS2 coat protein [1] (input ligand: FMN 200 uM) turned out to be 68.7 nM; with MS2 coat protein [1] (setting [3]) it was 217 nM; in the data set with MS2 coat protein [1] (input ligand: none), 253 nM.
For the sequence “AAAGGACAUGAGGAUCACCCAUGUAGAAAAUACACAGGAUAUCGUCAUAUCGAAUUAUAAUGAGAAGGGUGCAAAA [Vebeinlala] (puzzle: Same State 1)”, the “apparent KD of MS2 coat protein” value stood at 59.9 nM in the data set with MS2 coat protein [1] (setting [4]), 273 nM in the data set with MS2 coat protein [1] (setting [5]) and 124 nM with MS2 coat protein [1] (setting [6]).
Regarding “AAAGGAUGAUUAUACAUGAGGAUCACCCAUGUAAGUUAUACUAAGGAUAUGUGACUUAAUAGUUUACAGAAGGUAGGUUCAUGA [AK SSNG3-V2-2] (Eterna round: R96, puzzle: Same State NG 3)”, the results for the “apparent KD of MS2 coat protein” value in the data set on MS2 coat protein [1] (input ligand: FMN 200 uM), with MS2 coat protein [1] (setting [3]) and with MS2 coat protein [1] (input ligand: none) were 43.8 nM, 69.3 nM and 59.9 nM, respectively.
On to “AACAAUCUAUCUGAGGAUAUCAUGAAAAAAACAUGAGGAUCACCCAUGUGCAGGAAAACUGCAUAUGAGAAGGCAGAUAGAUUGA [SS2: 1101] (Eterna round: R96, puzzle: Same State 2)”, for which the “apparent KD of MS2 coat protein” value in the data set with MS2 coat protein [1] (setting [3]) is 490 nM.
For “AACAAUCUAUCUGAGGAUAUCAUGAAAAAAACAUGAGGAUCACCCAUGUGCAGGAAAACUGCAUAUGAGAAGGCAGAUAGAUUGA [salish99_SS2_r3_001] (Eterna round: R96, puzzle: Same State 2)”, in the data set on MS2 coat protein [1] (setting [3]), the “apparent KD of MS2 coat protein” value was found to be 490 nM.
As for “AACAAUCUAUCUGAGGAUAUCAUGAAAAAAACAUGAGGAUCACCCAUGUGCAGGAAAACUGCAUAUGAGAAGGCAGAUAGAUUGA [salish99_SS2_r3_001] (puzzle: Same State 2)”, the “apparent KD of MS2 coat protein” value in the data set on MS2 coat protein [1] (setting [4]) is 20.6 nM; in the data set on MS2 coat protein [1] (setting [5]), 484 nM; in the data set on MS2 coat protein [1] (setting [6]), 741 nM.
Take “UUUUAAUGUGCGGAUACCAGCCGUACAUGAGGAUCACCCAUGUCGCUGUUGAGCAUCGUCGGCCCUUGGCAGCUGUGUGUAGUUG [#27 Same State - Theophylline B]”: the “apparent KD of MS2 coat protein” value in the data set on MS2 coat protein [2] (input ligand: arginine 13.2 mM) was determined as 26.2 nM; in the data set with MS2 coat protein [2] (input ligand: none), 51.9 nM; with MS2 coat protein [2] (input ligand: theophylline 20 uM) it was 62.7 nM; with MS2 coat protein [2] (input ligand: theophylline 2 mM), 66 nM; with MS2 coat protein [2] (input ligand: tryptophan 2.4 mM), 42.3 nM.

These data come from the supplement of paper PMC9170038.
